Experimental data taken from IntAct's records for PubMed 29039417.

B1: Protein PTHB1 (Homo sapiens), Q3SYG4 (parent)
chain: MSLFKARDWWSTILGDKEEFDQGCLCLANVDNSGNGQDKIIVGSFMGYLRIFSPHPAKTGDGAQAEDLLLEVDLRDPVLQVEVGKFVSGTEMLHLAVLHSRKLCVYSVSGTLGNVEHGNQCQMKLMYEHNLQRTACNMTYGSFGGVKGRDLICIQSMDGMLMVFEQESYAFGRFLPGFLLPGPLAYSSRTDSFLTVSSCQQVESYKYQVLAFATDADKRQETEQQKLGSGKRLVVDWTLNIGEQALDICIVSFNQSASSVFVLGERNFFCLKDNGQIRFMKKLDWSPSCFLPYCSVSEGTINTLIGNHNNMLHIYQDVTLKWATQLPHIPVAVRVGCLHDLKGVIVTLSDDGHLQCSYLGTDPSLFQAPNVQSRELNYDELDVEMKELQKIIKDVNKSQGVWPMTEREDDLNVSVVVSPNFDSVSQATDVEVGTDLVPSVTVKVTLQNRVILQKAKLSVYVQPPLELTCDQFTFEFMTPDLTRTVSFSVYLKRSYTPSELEGNAVVSYSRPTDRNPDGIPRVIQCKFRLPLKLICLPGQPSKTASHKITIDTNKSPVSLLSLFPGFASQSDDDQVNVMGFHFLGGARITVLASKTSQRYRIQSEQFEDLWLITNELILRLQEYFEKQGVKDFACSFSGSIPLQEYFELIDHHFELRINGEKLEELLSERAVQFRAIQRRLLARFKDKTPAPLQHLDTLLDGTYKQVIALADAVEENQGNLFQSFTRLKSATHLVILLIALWQKLSADQVAILEAAFLPLQEDTQELGWEETVDAAISHLLKTCLSKSSKEQALNLNSQLNIPKDTSQLKKHITLLCDRLSKGGRLCLSTDAAAPQTMVMPGGCTTIPESDLEERSVEQDSTELFTNHRHLTAETPRPEVSPLQGVSE
partner: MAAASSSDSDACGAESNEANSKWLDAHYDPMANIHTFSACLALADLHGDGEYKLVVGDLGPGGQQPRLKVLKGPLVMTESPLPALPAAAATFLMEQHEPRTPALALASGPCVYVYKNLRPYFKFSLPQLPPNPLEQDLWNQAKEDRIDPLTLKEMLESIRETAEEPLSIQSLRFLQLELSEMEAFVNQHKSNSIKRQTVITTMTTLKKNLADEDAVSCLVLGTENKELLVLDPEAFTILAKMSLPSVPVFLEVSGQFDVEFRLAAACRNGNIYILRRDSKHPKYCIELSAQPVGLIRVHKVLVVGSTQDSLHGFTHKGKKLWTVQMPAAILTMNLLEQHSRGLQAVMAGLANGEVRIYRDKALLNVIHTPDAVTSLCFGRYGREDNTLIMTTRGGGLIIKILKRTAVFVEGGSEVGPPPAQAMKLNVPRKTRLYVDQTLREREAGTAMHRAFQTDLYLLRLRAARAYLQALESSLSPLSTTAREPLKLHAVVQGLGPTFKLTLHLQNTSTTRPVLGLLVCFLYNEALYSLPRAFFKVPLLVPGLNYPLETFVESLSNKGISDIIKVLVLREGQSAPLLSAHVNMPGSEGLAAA
B2: Protein PTHB1 (Homo sapiens), Q3SYG4 (parent)
chain: B1 chain
partner: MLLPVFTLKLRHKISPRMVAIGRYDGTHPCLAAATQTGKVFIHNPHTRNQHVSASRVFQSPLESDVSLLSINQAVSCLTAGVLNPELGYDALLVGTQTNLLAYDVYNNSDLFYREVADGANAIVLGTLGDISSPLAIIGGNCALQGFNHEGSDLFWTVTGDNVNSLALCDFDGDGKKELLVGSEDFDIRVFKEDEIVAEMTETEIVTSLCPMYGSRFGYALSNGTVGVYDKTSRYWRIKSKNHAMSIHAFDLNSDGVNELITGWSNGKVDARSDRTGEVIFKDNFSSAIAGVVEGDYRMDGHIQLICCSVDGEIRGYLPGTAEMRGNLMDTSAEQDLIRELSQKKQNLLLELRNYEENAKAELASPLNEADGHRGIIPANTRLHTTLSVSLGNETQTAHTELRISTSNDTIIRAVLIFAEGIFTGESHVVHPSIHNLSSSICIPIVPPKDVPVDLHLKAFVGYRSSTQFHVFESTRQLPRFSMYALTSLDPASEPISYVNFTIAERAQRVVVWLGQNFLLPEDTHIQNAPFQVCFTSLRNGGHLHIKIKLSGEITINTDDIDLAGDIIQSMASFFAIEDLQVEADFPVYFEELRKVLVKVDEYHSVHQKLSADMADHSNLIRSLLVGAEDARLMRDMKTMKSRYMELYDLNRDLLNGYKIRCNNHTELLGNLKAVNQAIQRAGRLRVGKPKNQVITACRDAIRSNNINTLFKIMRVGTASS

Variants of: B1
Conditions: with bbs1_human BBS1, Q8NFJ9

Effect of a mutation on the interaction, with no effect:
L863E
L863K
F864A
F864E
F864K
T865A
T865E
T865K
N866A
N866E
N866K
H867A
H867E
H867K
R868A
R868E
R868K
H869A
H869E
H869K
L870A
L870E
L870K
T871A
T871E
T871K
A872E
A872K
E873A
E873K
T874A
T874E
T874K
P875A
P875E
P875K
R876A
R876E
R876K
P877A
P877E
P877K
E878A
E878K
V879A
V879E
V879K
S880A
S880E
S880K
P881A
P881E
P881K
L882A
L882E
L882K
Q883A
Q883E
Q883K
G884A
G884E
G884K
V885A
V885E
V885K
S886A
S886E
S886K
E887A
E887K

Variants of: B2
Conditions: with bbs2_human BBS2, Q9BXC9

Effect of a mutation on the interaction, with no effect:
T405A
T405E
T405K
E406A
E406K
R407A
R407E
R407K
E408A
E408K
D409A
D409E
D409K
D410A
D410E
D410K
L411A
L411E
L411K
N412A
N412E
N412K
V413A
V413E
V413K
S414A
S414E
S414K
V415A
V415E
V415K
V416A
V416E
V416K
V417A
V417E
V417K
S418A
S418E
S418K
P419A
P419E
P419K
N420A
N420E
N420K
F421A
F421E
F421K
D422A
D422E
D422K
S423A
S423E
S423K
V424A
V424E
V424K
S425A
S425E
S425K
Q426A
Q426E
Q426K
A427E
A427K
T428A
T428E
T428K
D429A
D429E
D429K
V430A
V430E
V430K
E431A
E431K
V432A
V432E
V432K
G433A
G433E
G433K
T434A
T434E
T434K
D435A
D435E
D435K
L436A
L436E
L436K
V437A
V437E
V437K
P438A
P438E
P438K
S439A
S439E
S439K
V440A
V440E
V440K
T441A
T441E
T441K
V442A
V442E
V442K
K443A
K443E
V444A
V444E
V444K
T445A
T445E
T445K
